In patent US20180155451A1 (published 2018):

T1: FcγRIIa R (human, UniProt P12318 34-217)
T1 construct: extracellular domain; also called FcgRIIa R type; 2aR
T1 sequence (looked up): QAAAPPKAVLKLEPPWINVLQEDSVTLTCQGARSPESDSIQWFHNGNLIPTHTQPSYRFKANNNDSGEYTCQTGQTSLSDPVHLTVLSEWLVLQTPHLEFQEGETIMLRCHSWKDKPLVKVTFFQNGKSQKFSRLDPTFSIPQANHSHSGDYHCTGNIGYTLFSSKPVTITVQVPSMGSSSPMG

B1: GpH7-B3 variant N325_06M/GpL16-k0 (antibody, human IgG1, kappa)
heavy: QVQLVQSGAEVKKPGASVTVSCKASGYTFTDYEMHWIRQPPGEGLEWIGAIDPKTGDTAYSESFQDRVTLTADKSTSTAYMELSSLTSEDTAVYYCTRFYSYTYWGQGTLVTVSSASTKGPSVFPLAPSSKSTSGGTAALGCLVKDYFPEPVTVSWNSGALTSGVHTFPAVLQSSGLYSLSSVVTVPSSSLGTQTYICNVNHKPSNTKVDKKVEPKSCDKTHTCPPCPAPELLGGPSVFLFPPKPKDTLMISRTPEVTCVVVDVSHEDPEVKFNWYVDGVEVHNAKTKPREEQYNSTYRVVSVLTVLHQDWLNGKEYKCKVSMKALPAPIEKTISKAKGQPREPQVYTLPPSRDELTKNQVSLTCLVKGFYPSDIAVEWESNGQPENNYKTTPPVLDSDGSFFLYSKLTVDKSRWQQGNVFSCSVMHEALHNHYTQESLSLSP
light: DIVMTQSPLSLPVTPGEPASISCQASESLVHSNRNTYLHWYLQKPGQSPQLLIYKVSNRFSGVPDRFSGSGSGTDFTLKISRVEAEDVGVYYCSQNTHVPPTFGQGTKVEIERTVAAPSVFIFPPSDEQLKSGTASVVCLLNNFYPREAKVQWKVDNALQSGNSQESVTEQDSKDSTYSLSSTLTLSKADYEKHKVYACEVTHQGLSSPVTKSFNRGEC
notes: also called Ho Ab N325_06M
B2: GpH7-B3 variant A327_10E/GpL16-k0 (antibody, human IgG1, kappa)
heavy: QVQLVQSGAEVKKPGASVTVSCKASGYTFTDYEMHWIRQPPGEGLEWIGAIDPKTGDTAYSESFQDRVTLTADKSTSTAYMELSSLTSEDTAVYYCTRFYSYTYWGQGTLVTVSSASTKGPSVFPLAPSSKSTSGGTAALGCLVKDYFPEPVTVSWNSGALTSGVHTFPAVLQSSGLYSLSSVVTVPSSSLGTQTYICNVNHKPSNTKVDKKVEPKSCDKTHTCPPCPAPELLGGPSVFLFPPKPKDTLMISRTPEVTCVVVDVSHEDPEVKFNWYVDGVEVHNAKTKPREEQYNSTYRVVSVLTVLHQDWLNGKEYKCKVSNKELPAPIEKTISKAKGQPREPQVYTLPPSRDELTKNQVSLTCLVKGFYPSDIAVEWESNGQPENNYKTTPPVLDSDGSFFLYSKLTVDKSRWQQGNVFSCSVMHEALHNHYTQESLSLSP
light: B1 light
notes: also called Ho Ab A327_10E
B3: GpH7-B3 variant A327_09D/GpL16-k0 (antibody, human IgG1, kappa)
heavy: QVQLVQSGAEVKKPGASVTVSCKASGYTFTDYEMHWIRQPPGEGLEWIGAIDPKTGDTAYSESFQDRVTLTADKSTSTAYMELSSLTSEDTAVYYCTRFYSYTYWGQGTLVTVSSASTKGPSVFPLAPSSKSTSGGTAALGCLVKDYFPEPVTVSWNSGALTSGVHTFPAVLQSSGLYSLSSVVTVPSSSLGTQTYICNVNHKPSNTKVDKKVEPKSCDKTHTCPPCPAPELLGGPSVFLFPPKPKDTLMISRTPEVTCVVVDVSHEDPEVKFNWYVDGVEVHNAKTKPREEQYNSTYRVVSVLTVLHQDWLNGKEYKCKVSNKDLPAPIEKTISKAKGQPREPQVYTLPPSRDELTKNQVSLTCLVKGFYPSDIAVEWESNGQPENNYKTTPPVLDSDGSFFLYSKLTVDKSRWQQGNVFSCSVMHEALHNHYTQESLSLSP
light: B1 light
notes: also called Ho Ab A327_09D
B4: GpH7-B3 variant A330_01G/GpL16-k0 (antibody, human IgG1, kappa)
heavy: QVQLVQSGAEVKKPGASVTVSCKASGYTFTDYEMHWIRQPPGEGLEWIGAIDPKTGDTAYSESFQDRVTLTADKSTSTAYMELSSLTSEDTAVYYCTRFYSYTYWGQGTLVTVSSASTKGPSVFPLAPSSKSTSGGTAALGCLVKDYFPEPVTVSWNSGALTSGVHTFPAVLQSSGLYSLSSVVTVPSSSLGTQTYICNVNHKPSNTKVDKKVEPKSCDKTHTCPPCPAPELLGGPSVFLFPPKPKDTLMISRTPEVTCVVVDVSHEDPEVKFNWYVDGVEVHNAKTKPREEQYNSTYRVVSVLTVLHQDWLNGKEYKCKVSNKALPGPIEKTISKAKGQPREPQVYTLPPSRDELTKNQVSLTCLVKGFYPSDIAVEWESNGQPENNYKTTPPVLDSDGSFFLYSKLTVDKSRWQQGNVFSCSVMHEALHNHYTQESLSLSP
light: B1 light
notes: also called Ho Ab A330_01G
B5: GpH7-A5/GpH7-B3 variant L328_02A/GpL16-k0 (antibody, human IgG1, kappa)
heavy 1: not shown
heavy 2: not shown
light: B1 light
notes: also called He Ab L328_02A
B6: GpH7-A5/GpH7-B3 variant S267_03V/GpL16-k0 (antibody, human IgG1, kappa)
heavy 1: not shown
heavy 2: not shown
light: B1 light
notes: also called He Ab S267_03V
B7: GpH7-A5/GpH7-B3 variant L235_04F/GpL16-k0 (antibody, human IgG1, kappa)
heavy 1: not shown
heavy 2: not shown
light: B1 light
notes: also called He Ab L235_04F
B8: GpH7-A5/GpH7-B3 variant N325_03V/GpL16-k0 (antibody, human IgG1, kappa)
heavy 1: not shown
heavy 2: not shown
light: B1 light
notes: also called He Ab N325_03V
B9: GpH7-A5/GpH7-B3 variant L234_04F/GpL16-k0 (antibody, human IgG1, kappa)
heavy 1: not shown
heavy 2: not shown
light: B1 light
notes: also called He Ab L234_04F
B10: GpH7-A5/GpH7-B3 variant N325_07I/GpL16-k0 (antibody, human IgG1, kappa)
heavy 1: not shown
heavy 2: not shown
light: B1 light
notes: also called He Ab N325_07I
B11: GpH7-A5/GpH7-B3 variant N325_14T/GpL16-k0 (antibody, human IgG1, kappa)
heavy 1: not shown
heavy 2: not shown
light: B1 light
notes: also called He Ab N325_14T
B12: GpH7-A5/GpH7-B3 variant K326_18N/GpL16-k0 (antibody, human IgG1, kappa)
heavy 1: not shown
heavy 2: not shown
light: B1 light
notes: also called He Ab K326_18N
B13: GpH7-A5/GpH7-B3 variant S239_10E/GpL16-k0 (antibody, human IgG1, kappa)
heavy 1: not shown
heavy 2: not shown
light: B1 light
notes: also called He Ab S239_10E
B14: GpH7-A5/GpH7-B3 variant S239_08L/GpL16-k0 (antibody, human IgG1, kappa)
heavy 1: not shown
heavy 2: not shown
light: B1 light
notes: also called He Ab S239_08L
B15: GpH7-A5/GpH7-B3 variant K334_13S/GpL16-k0 (antibody, human IgG1, kappa)
heavy 1: not shown
heavy 2: not shown
light: B1 light
notes: also called He Ab K334_13S
B16: GpH7-A5/GpH7-B3 variant N325_04F/GpL16-k0 (antibody, human IgG1, kappa)
heavy 1: not shown
heavy 2: not shown
light: B1 light
notes: also called He Ab N325_04F
B17: GpH7-A5/GpH7-B3 variant K334_02A/GpL16-k0 (antibody, human IgG1, kappa)
heavy 1: not shown
heavy 2: not shown
light: B1 light
notes: also called He Ab K334_02A
B18: GpH7-A5/GpH7-B3 variant S239_18N/GpL16-k0 (antibody, human IgG1, kappa)
heavy 1: not shown
heavy 2: not shown
light: B1 light
notes: also called He Ab S239_18N
B19: GpH7-A5/GpH7-B3 variant K334_20W/GpL16-k0 (antibody, human IgG1, kappa)
heavy 1: not shown
heavy 2: not shown
light: B1 light
notes: also called He Ab K334_20W
B20: GpH7-A5/GpH7-B3 variant L235_09D/GpL16-k0 (antibody, human IgG1, kappa)
heavy 1: not shown
heavy 2: not shown
light: B1 light
notes: also called He Ab L235_09D
B21: GpH7-A5/GpH7-B3 variant P331_15Y/GpL16-k0 (antibody, human IgG1, kappa)
heavy 1: not shown
heavy 2: not shown
light: B1 light
notes: also called He Ab P331_15Y
B22: GpH7-A5/GpH7-B3 variant P238_03V/GpL16-k0 (antibody, human IgG1, kappa)
heavy 1: not shown
heavy 2: not shown
light: B1 light
notes: also called He Ab P238_03V
B23: GpH7-A5/GpH7-B3 variant P331_02A/GpL16-k0 (antibody, human IgG1, kappa)
heavy 1: not shown
heavy 2: not shown
light: B1 light
notes: also called He Ab P331_02A
B24: GpH7-A5/GpH7-B3 variant K326_15Y/GpL16-k0 (antibody, human IgG1, kappa)
heavy 1: not shown
heavy 2: not shown
light: B1 light
notes: also called He Ab K326_15Y
B25: GpH7-A5/GpH7-B3 variant K326_12R/GpL16-k0 (antibody, human IgG1, kappa)
heavy 1: not shown
heavy 2: not shown
light: B1 light
notes: also called He Ab K326_12R
B26: GpH7-A5/GpH7-B3 variant N325_13S/GpL16-k0 (antibody, human IgG1, kappa)
heavy 1: not shown
heavy 2: not shown
light: B1 light
notes: also called He Ab N325_13S
B27: GpH7-A5/GpH7-B3 variant P271_08L/GpL16-k0 (antibody, human IgG1, kappa)
heavy 1: not shown
heavy 2: not shown
light: B1 light
notes: also called He Ab P271_08L
B28: GpH7-A5/GpH7-B3 variant K334_05P/GpL16-k0 (antibody, human IgG1, kappa)
heavy 1: not shown
heavy 2: not shown
light: B1 light
notes: also called He Ab K334_05P
B29: GpH7-A5/GpH7-B3 variant P238_09D/GpL16-k0 (antibody, human IgG1, kappa)
heavy 1: not shown
heavy 2: not shown
light: B1 light
notes: also called He Ab P238_09D
B30: GpH7-A5/GpH7-B3 variant N325_08L/GpL16-k0 (antibody, human IgG1, kappa)
heavy 1: not shown
heavy 2: not shown
light: B1 light
notes: also called He Ab N325_08L
B31: GpH7-A5/GpH7-B3 variant P331_16H/GpL16-k0 (antibody, human IgG1, kappa)
heavy 1: not shown
heavy 2: not shown
light: B1 light
notes: also called He Ab P331_16H
B32: GpH7-A5/GpH7-B3 variant P238_06M/GpL16-k0 (antibody, human IgG1, kappa)
heavy 1: not shown
heavy 2: not shown
light: B1 light
notes: also called He Ab P238_06M
B33: GpH7-A5/GpH7-B3 variant K334_08L/GpL16-k0 (antibody, human IgG1, kappa)
heavy 1: not shown
heavy 2: not shown
light: B1 light
notes: also called He Ab K334_08L
B34: GpH7-A5/GpH7-B3 variant K334_12R/GpL16-k0 (antibody, human IgG1, kappa)
heavy 1: not shown
heavy 2: not shown
light: B1 light
notes: also called He Ab K334_12R
B35: GpH7-A5/GpH7-B3 variant L234_20W/GpL16-k0 (antibody, human IgG1, kappa)
heavy 1: not shown
heavy 2: not shown
light: B1 light
notes: also called He Ab L234_20W
B36: GpH7-A5/GpH7-B3 variant P238_04F/GpL16-k0 (antibody, human IgG1, kappa)
heavy 1: not shown
heavy 2: not shown
light: B1 light
notes: also called He Ab P238_04F
B37: GpH7-A5/GpH7-B3 variant N325_09D/GpL16-k0 (antibody, human IgG1, kappa)
heavy 1: not shown
heavy 2: not shown
light: B1 light
notes: also called He Ab N325_09D
B38: GpH7-A5/GpH7-B3 variant L234_09D/GpL16-k0 (antibody, human IgG1, kappa)
heavy 1: not shown
heavy 2: not shown
light: B1 light
notes: also called He Ab L234_09D
B39: GpH7-A5/GpH7-B3 variant L234_10E/GpL16-k0 (antibody, human IgG1, kappa)
heavy 1: not shown
heavy 2: not shown
light: B1 light
notes: also called He Ab L234_10E
B40: GpH7-A5/GpH7-B3 variant K326_20W/GpL16-k0 (antibody, human IgG1, kappa)
heavy 1: not shown
heavy 2: not shown
light: B1 light
notes: also called He Ab K326_20W
B41: GpH7-A5/GpH7-B3 variant L235_15Y/GpL16-k0 (antibody, human IgG1, kappa)
heavy 1: not shown
heavy 2: not shown
light: B1 light
notes: also called He Ab L235_15Y
B42: GpH7-A5/GpH7-B3 variant N325_01G/GpL16-k0 (antibody, human IgG1, kappa)
heavy 1: not shown
heavy 2: not shown
light: B1 light
notes: also called He Ab N325_01G
B43: GpH7-A5/GpH7-B3 variant N325_20W/GpL16-k0 (antibody, human IgG1, kappa)
heavy 1: not shown
heavy 2: not shown
light: B1 light
notes: also called He Ab N325_20W
B44: GpH7-A5/GpH7-B3 variant L328_14T/GpL16-k0 (antibody, human IgG1, kappa)
heavy 1: not shown
heavy 2: not shown
light: B1 light
notes: also called He Ab L328_14T
B45: GpH7-A5/GpH7-B3 variant K334_19Q/GpL16-k0 (antibody, human IgG1, kappa)
heavy 1: not shown
heavy 2: not shown
light: B1 light
notes: also called He Ab K334_19Q
B46: GpH7-A5/GpH7-B3 variant L328_10E/GpL16-k0 (antibody, human IgG1, kappa)
heavy 1: not shown
heavy 2: not shown
light: B1 light
notes: also called He Ab L328_10E
B47: GpH7-A5/GpH7-B3 variant P331_04F/GpL16-k0 (antibody, human IgG1, kappa)
heavy 1: not shown
heavy 2: not shown
light: B1 light
notes: also called He Ab P331_04F
B48: GpH7-A5/GpH7-B3 variant L328_09D/GpL16-k0 (antibody, human IgG1, kappa)
heavy 1: not shown
heavy 2: not shown
light: B1 light
notes: also called He Ab L328_09D
B49: GpH7-A5/GpH7-B3 variant N325_10E/GpL16-k0 (antibody, human IgG1, kappa)
heavy 1: not shown
heavy 2: not shown
light: B1 light
notes: also called He Ab N325_10E
B50: GpH7-A5/GpH7-B3 variant P331_20W/GpL16-k0 (antibody, human IgG1, kappa)
heavy 1: not shown
heavy 2: not shown
light: B1 light
notes: also called He Ab P331_20W
B51: GpH7-A5/GpH7-B3 variant N325_15Y/GpL16-k0 (antibody, human IgG1, kappa)
heavy 1: not shown
heavy 2: not shown
light: B1 light
notes: also called He Ab N325_15Y
B52: GpH7-A5/GpH7-B3 variant L328_13S/GpL16-k0 (antibody, human IgG1, kappa)
heavy 1: not shown
heavy 2: not shown
light: B1 light
notes: also called He Ab L328_13S
B53: GpH7-A5/GpH7-B3 variant K334_10E/GpL16-k0 (antibody, human IgG1, kappa)
heavy 1: not shown
heavy 2: not shown
light: B1 light
notes: also called He Ab K334_10E
B54: GpH7-A5/GpH7-B3 variant L235_20W/GpL16-k0 (antibody, human IgG1, kappa)
heavy 1: not shown
heavy 2: not shown
light: B1 light
notes: also called He Ab L235_20W
B55: GpH7-A5/GpH7-B3 variant K334_04F/GpL16-k0 (antibody, human IgG1, kappa)
heavy 1: not shown
heavy 2: not shown
light: B1 light
notes: also called He Ab K334_04F

biological target: T1, FcγRIIa R; experiment: SPR Biacore; vs GpH7-B3/GpL16-k0 =100
Protocol: Analysis of interaction between objective antibody and the FcγR was carried out using Biacore T100 (GE Healthcare). HBS-EP+ (GE Healthcare) was used as the running buffer, and the measurement temperature was set to 25° C. Chips produced by immobilizing the antigen peptide by the amine coupling method to a Series S Sencor Chip CM5 (GE Healthcare), or alternatively, chips produced by allowing preliminarily biotinylated antigen peptides to interact with and immobilize onto a Series S Sensor Chip SA (certified) (GE Healthcare) were used. Antibodies of interest were captured onto an antigen peptide-immobilized chip, and allowed to interact to each FcγR diluted with running buffer. To regenerate and repeatedly use the chip, the antibodies captured on the chip were washed off by reacting 10 mM glycine-HCl, pH 1.5.
The FcγR-binding activity of each antibody was assessed primarily using as an indicator the FcγR-binding activity and dissociation constant for FcγR.

Ho/Con_2aR | Binder
124 % of control | B1
104 % of control | B2
120 % of control | B3
106 % of control | B4

biological target: T1, FcγRIIa R; experiment: SPR Biacore; vs GpH7-A5/GpH7-B3/GpL16-k0 =100

He/Con_2aR | Binder
117 % of control | B5
116 % of control | B6
114 % of control | B7
108 % of control | B8
104 % of control | B9
133 % of control | B10
105 % of control | B11
115 % of control | B12
135 % of control | B13
122 % of control | B14
109 % of control | B15
120 % of control | B16
105 % of control | B17
111 % of control | B18
105 % of control | B19
101 % of control | B20
112 % of control | B21
120 % of control | B22
106 % of control | B23
136 % of control | B24
103 % of control | B25
143 % of control | B26
104 % of control | B27
103 % of control | B28
148 % of control | B29
144 % of control | B30

He/Con_2aR | Binder
114 % of control | B31
139 % of control | B32
106 % of control | B33
111 % of control | B34
108 % of control | B35
174 % of control | B36
116 % of control | B37
122 % of control | B38
112 % of control | B39
131 % of control | B40
129 % of control | B41
107 % of control | B42
134 % of control | B43
119 % of control | B44
109 % of control | B45
105 % of control | B46
111 % of control | B47
119 % of control | B48
105 % of control | B49
110 % of control | B50
101 % of control | B51
117 % of control | B52
106 % of control | B53
131 % of control | B54
110 % of control | B55
